Measured values published in paper PMC7108717, “Dynamics in the murine norovirus capsid revealed by high-resolution cryo-EM” (PLoS Biology, 2020).

Molecular target: the molecule itself
Experiment: cryo-EM structure; purified virions in EM buffer (10 mM HEPES pH 7.6, 200 mM NaCl, 5 mM MgCl2, 1 mM KCl, 1 mM CaCl2), icosahedral reconstruction and focussed classification of P domain dimers

B1: murine norovirus (MNV-1 strain CW1P3) major structural protein VP1, wild type (natural protein)
chain: MRMSDGAAPKANGSEASGQDLVPAAVEQAVPIQPVAGAALAAPAAGQINQIDPWIFQNFVQCPLGEFSISPRNTPGEILFDLALGPGLNPYLAHLSAMYTGWVGNMEVQLVLAGNAFTAGKVVVALVPPYFPKGSLTTAQITCFPHVMCDVRTLEPIQLPLLDVRRVLWHATQDQEESMRLVCMLYTPLRTNSPGDESFVVSGRLLSKPAADFNFVYLTPPIERTIYRMVDLPVIQPRLCTHARWPAPVYGLLVDPSLPSNPQWQNGRVHVDGTLLGTTPISGSWVSCFAAEAAYKFQSGTGEVATFTLIEQDGSAYVPGDRAAPLGYPDFSGQLEIEVQTETTKTGDKLKVTTFEMILGPTTNADQAPYQGRVFASVTAAASLDLVDGRVRAVPRSIYGFQDTIPEYNDGLLVPLAPPIGPFLPGEVLLRFRTYMRQIDTADAAAEAIDCALPQEFVSWFASNAFTVQSEALLLRYRNTLTGQLLFECKLYNEGYIALSYSGSGPLTFPTDGIFEVVSWVPRLYQLASVGSLATGRMLKQ
notes: major capsid protein VP1 (ORF2) of murine norovirus MNV-1 strain CW1P3, as it stands in infectious virions; N-terminal region, S domain, P domain (P1, P2); modelled from D20 (A-type), S17 (B-type), V30 (C-type); Capsid: 90 dimers (AB and CC) in T = 3 symmetry; also called wtMNV VP1; MNV VP1; copies: 180
stoichiometry N: 180 VP1 chains in the capsid
